Measurements: patent US9884122B2, “Small molecule drug conjugates” (Philochem AG, priority 2014, dated 2018)

How the values were obtained:
[1] = test system: subcutaneous SKRC52 tumors; assay: Analysis of tumor penetration by fluorescence microscopy; assay type: in vivo, mouse; conditions: 50 nmol intravenous; for tumor staining / penetration by fluorescence microscopy: Alexa546 probes
Description: After warming to −20° C., samples were cut into sections of 10 μm width and directly imaged on an Axioskop 2 fluorescence microscope (Zeiss).

[2] = test system: CAIX expressing SKRC52 cells; assay: In vitro cytotoxicity assay (MTS); assay type: cell-based, human; conditions: Condition (b): 1 h exposure, wash, then 72 h; concentrations up to 300 nM
Description: SKRC52 or A549 cells were seeded in 96-well plates in their appropriate culture medium (100 μL) at a density of 5000 cells per well and allowed to grow for 24 h. The medium was replaced with medium containing different concentrations of test substance (100 μL, 300 nM-15 pM in 1:3 dilution steps) and plates were either:
(a) incubated for 72 hours in the presence of the toxic substance, or
(b) incubated for 1 h under standard culture conditions, followed by removal of the medium containing the toxic substance, gently washing the cells fresh medium once and adding new medium (100 μL) and incubating for 72 h under culture conditions.
MTS cell viability dye (20 μL, Promega) was added, the plates were incubated for 1 h under culture conditions and the absorbance at 490 nm measured on a Spectra Max Paradigm multimode plate reader (Molecular Devices). Experiments were performed in triplicate and average cell viability calculated as measured background corrected absorbance divided by the absorbance of untreated control wells. EC50 values were determined by fitting data to the four-parameter logistic equation.

[3] = Estimation of the recommended therapy dose (tolerability); assay type: in vivo, mouse; conditions: for tolerated dose: nude mice, one mouse per regimen
Description: Estimation of the recommended therapy dose of a) 7a and b) 8a in nude mice was performed by studying different dosages using a schedule of five injections on five consecutive days compared to vehicle (5% DMSO in PBS pH 7.4). The dosage regimens were 0.4 nmol/day, 1.3 nmol/day, 4.0 nmol/day and 13.3 nmol/day. One mouse was used for each regimen.
Estimation of the recommended therapy dose and schedule of DM1 conjugate 9a was studied in SKRC52 tumor bearing nude mice. One mouse was used for testing each dosing scheme. Injections were given daily starting on day 0 in 5% DMSO in PBS pH 7.4 (150 μL). […] Since the animals in this study weighed on average 18% less than those used in the therapy study, a dose of 70 nmol per injection was used for the therapy experiment.

[4] = Hydrolytic stability in PBS pH 7.4 at 37 C (MS/MS or HPLC); assay type: physicochemical; parameters: half-life: dose or concentration left out as unconfirmed; conditions: PBS pH 7.4, 37° C.; for half-life: read-out: t1/2 in PBS (converted)
Description: (§1) Targeted carbonate or carbamate 7a or 8a (30 μg) was dissolved in PBS pH 7.4 (1.5 mL) and incubated at 37° C. under gentle agitation. Aliquots (100 μL) were removed at different time points and diluted 1:1 with an internal standard of etodolac (TCI Chemicals) in MeOH (20 μg mL^−1). Small molecules were separated from salts using an Oasis WAX online sample preparation column (Waters) on an Alliance HT separation module (50 μL injections, 0.3 mL min^−1 0.1% aq. HCOOH for 3 min followed by 0.3 mL min^−1 MeCN for 7 min, Waters) and analyzed by mass spectrometry/mass spectrometry (MS/MS) on a Quattro API spectrometer (Waters) monitoring appropriate multiple reaction monitoring (MRM) transitions for 8a, 8b and etodolac as standard. Measurements were performed in triplicate, peaks integrated and the fraction of intact test compounds calculated as fraction of signal at time t divided by signal at time zero. Since signals due to etodolac were constant over time a further correction using the internal standard as reference was omitted. For stability measures in mouse serum, compounds were dissolved in freshly thawed mouse plasma (Invitrogen), aliquots taken at different time points and diluted with an equal volume of MeCN. After vigorous vortexting for 1 min, protein precipitate was spun down and the supernatant analyzed as above.
Targeted DM1 conjugate 9a (230 μg, 140 nmol) was dissolved in PBS pH 7.4 (1 mL) and incubated at 37° C. under gentle agitation. […] Water (600 μL) was added and aliquots of this mixture (50 μL) analyzed over a Syngergi RP Polar column (150×4.6 mm, 4 μm, Phenomenex) on an Alliance HT separation module (1 mL min^−1 5% MeCN in 0.1% aqueous TFA to 100% MeCN over 20 min, Waters). Analytes were detected using a Water 2996 photo array UV/VIS detector (Waters). Measurements were performed in triplicate, peaks integrated and the fraction of intact test compounds calculated as fraction of signal at time t divided by signal at time zero. […] After vigorous vortexting for 1 min, protein precipitate was spun down and the supernatant analyzed as above.

[5] = target: T1, recombinant carbonic anhydrase IX (Homo sapiens, UniProt Q16790); assay: biochemical; assay type: binding
T1 construct: Recombinant CAIX was expressed as described previously; made in house
Description: The FP was measured on a Spectra Max Paradigm multimode plate reader (Molecular Devices). Experiments were performed in triplicate and data analyzed as described by Wang and co-workers.^[4]

[6] = Stability in mouse plasma/serum at 37 C; assay type: in vitro ADME
Description: as §1
Targeted DM1 conjugate 9a (230 μg, 140 nmol) was dissolved in PBS pH 7.4 (1 mL) and incubated at 37° C. under gentle agitation. Aliquots (100 μL) were removed at different time points and diluted 1:1 with an internal standard solution of etodolac (TCI Chemicals) in MeCN (20 μg mL^−1). Water (600 μL) was added and aliquots of this mixture (50 μL) analyzed over a Syngergi RP Polar column (150×4.6 mm, 4 μm, Phenomenex) on an Alliance HT separation module (1 mL min^−1 5% MeCN in 0.1% aqueous TFA to 100% MeCN over 20 min, Waters). Analytes were detected using a Water 2996 photo array UV/VIS detector (Waters). Measurements were performed in triplicate, peaks integrated and the fraction of intact test compounds calculated as fraction of signal at time t divided by signal at time zero. Since signals due to etodolac were constant over time a further correction using the internal standard as reference was omitted. For stability measures in mouse serum, compounds were dissolved in freshly thawed mouse plasma (Invitrogen), aliquots taken at different time points and diluted with an equal volume of MeCN. After vigorous vortexting for 1 min, protein precipitate was spun down and the supernatant analyzed as above.

SKRC52 xenograft tumors = conditions: for tumor growth effect: 5 doses of 4 nmol on 5 consecutive days, 7a vs vehicle p<0.0001, vs 7b plus AAZ p<0.05
Description: SKRC52 xenograft tumors were implanted into balb/c nu/nu mice (Charles River) as described above. […] 5 doses of 4 nmol 7a,b, 8a,b or 7 doses of 70 nmol 9a,b each in PBS pH 7.4 (150 μL) containing 5% DMSO were given on 5 or 7 consecutive days and one group was treated with vehicle (5% DMSO in PBS pH 7.4). In the case of 7-9b an equimolar amount of AAZ was added to the injection solution to control for a possible antitumor activity of CAIX inhibitors. Sorafenib and sunitnib were administered at a standard dose of 30 mg/kg as described previously.^[5] Animals were weighed and tumor sizes measured daily and the tumor volume calculated according to the formula (long side)×(short side)^2×0.5. […] Prism 6 (GraphPad Software) was used for data analysis (regular two-way ANOVA with the Bonferroni test).

[7] = test system: subcutaneous SKRC52 tumors
Description: SKRC52 cells were grown to 80% confluence and detached with Trypsin-EDTA 0.05% (Invitrogen). Cells were washed with PBS pH 7.4 once, counted and resuspended in PBS to a final concentration of 6.7×10^7 cells mL^−1. Athymic balb/c nu/nu mice, 8-10 weeks of age (Charles River) were anesthetized with isofluorane and aliquots of 1×10^7 cells (150 μL of suspension) injected subcutaneously into their lower back.
Food and water was given ad libitum during that period.
Mice were subsequently sacrificed by cervical dislocation.

[8] = test system: CAIX expressing SKRC52 cells; assay: Ligand binding analysis by flow cytometry, SKRC52; assay type: cell-based, human; conditions: 30 nM dye conjugate, 1 h at 0° C., washed
Description: Cells were detached from culture plates using a 50 mM EDTA solution in phosphate buffered saline (PBS) pH 7.4, counted and suspended to a final concentration of 1.5×10^6 cells mL^−1 in a 1% v/v solution of FCS in PBS pH 7.4. Aliquots of 3×10^5 cells (200 μL) were spun down and resuspended in solutions of IRDye750 (Licor) labeled ligands (30 nM) in a 1% v/v solution of FCS in PBS pH 7.4 (200 μL) and incubated on ice for 1 h. Cells were washed once with 200 μL 1% v/v solution of FCS in PBS pH 7.4 (200 μL), spun down, resuspended in 1% v/v solution of FCS in PBS pH 7.4 (300 μL) and analyzed on a FACS Canto flow cytometer (BD Bioscience). FlowJo Version 8.7 (Treestar) was used for data analysis and visualization. Results were as follows: • (1) Flow cytometry analysis of binding of ligand-IRDye750 conjugates 1c-6c (FIG. 1) to CAIX expressing SKRC52 cells.
Flow cytometry was performed as described above with monovalent and bivalent near infrared dye conjugates B3 and B4 and negative control conjugates lacking the ligand on CAIX-positive SKRC52 cells and CAIX-negative HEK cells^5.

[9] = five injections on five consecutive days
[10] = 7×70 nmol on 7 consecutive days

## N1-(2-(2-(2-aminoethoxy)ethoxy)ethyl)-N4-(5-sulfamoyl-1,3,4-thiadiazol-2-yl)succinamide Alexa546 conjugate [Compound 1b]
[1]
  fluorescence in organs by microscopy: strong fluorescence due to 1b inside the tumor and the intestine
  tumor staining / penetration by fluorescence microscopy: staining of the tumor with 1b is initially highest in well-perfused areas

## COc1cc2[nH]cc(C(=O)N3C[C@@H](CCl)c4c3cc(OC(=O)OCCSSC[C@H](NC(=O)[C@H](CC(=O)O)NC(=O)[C@H](CCCNC(=N)N)NC(=O)[C@H](CC(=O)O)NC(=O)CCCCn3cc(CCCC(=O)Nc5nnc(S(N)(=O)=O)s5)nn3)C(=O)O)c3ccccc43)c2cc1OCCN(C)C [Compound 7a, AAZ Targeted CBI Carbonate]
[2]
  EC50: 0.7 ± 0.1 nM
[3]; [9]
  tolerability at 13.3 nmol/day: poorly tolerated
  tolerated dose: up to 4.0 nmol/day
[4]
  half-life: 900 min
[5]
  Kd: 7.3 ± 0.5 nM
  binding affinity for recombinant CAIX in vitro (in words): retain binding affinity for recombinant CAIX in vitro
[6]; mouse plasma, MS/MS, errors <1 min, read-out: Half lives in mouse plasma
  half-life: 43 min
[6]; mouse serum, read-out: t1/2 in mouse serum in vitro
  half-life: 43 min
SKRC52 xenograft tumors
  tumor growth effect: statistically significant tumor growth retardation

## COc1cc2[nH]cc(C(=O)N3C[C@@H](CCl)c4c3cc(OC(=O)N(C)CCSSC[C@H](NC(=O)[C@H](CC(=O)O)NC(=O)[C@H](CCCNC(=N)N)NC(=O)[C@H](CC(=O)O)NC(=O)CCCCn3cc(CCCC(=O)Nc5nnc(S(N)(=O)=O)s5)nn3)C(=O)O)c3ccccc43)c2cc1OCCN(C)C [Compound 8a, AAZ Targeted CBI Carbamate]
[3]; [9]
  tolerated dose: ≤ 13.3 nmol/day
[4]; buffer
  half-life: > 1440 min
[5]
  Kd: 40.3 ± 2.6 nM
  binding affinity for recombinant CAIX in vitro (in words): retain binding affinity for recombinant CAIX in vitro
[6]; plasma, MS/MS, errors <1 min, read-out: Half lives in mouse plasma
  half-life: 61 min
[6]; serum, read-out: t1/2 in mouse serum in vitro
  half-life: 61 min
SKRC52 xenograft tumors
  tumor growth effect: did not lead to any retardation in tumor growth

## tert-butyl (2-(2-(2-aminoethoxy)ethoxy)ethyl)carbamate Alexa546 conjugate [Compound 6b]
[1]
  tumor staining / penetration by fluorescence microscopy: cannot be detected inside the tumor

## CC(C)(C)OC(=O)NCCOCCOCCNC(=O)CCCCc1ccc(C2=C(/C=C/C3=[N+](CCCCS(=O)(=O)O)c4ccc(S(=O)(=O)O)cc4C3(C)C)CCC/C2=C\C=C2\N(CCCCS(=O)(=O)O)c3ccc(S(=O)(=O)[O-])cc3C2(C)C)cc1 [Compound 6c, reference compound]
[7]; 3 nmol intravenous, 1-12 h
  tumor targeting by near infrared imaging: does not reach the tumor
[7]; mouse, in vivo
  accumulation in extracted tumor and organs (imaging): very little tumor or organ accumulation
[8]
  binding to SKRC52 cells (fluorescence shift): only shows little residual binding

## COc1cc2cc(c1Cl)N(C)C(=O)C[C@H](OC(=O)[C@H](C)N(C)C(=O)CCSSC[C@H](NC(=O)[C@H](CC(=O)O)NC(=O)[C@H](CCCNC(=N)N)NC(=O)[C@H](CC(=O)O)NC(=O)CCCCn1cc(CCCC(=O)Nc3nnc(S(N)(=O)=O)s3)nn1)C(=O)O)[C@@]1(C)O[C@H]1[C@H](C)[C@@H]1C[C@@](O)(NC(=O)O1)[C@H](OC)/C=C/C=C(\C)C2 [Compound 9a, Targeted DM1 Conjugate]
[3]; daily injections, SKRC52 tumor bearing nude mice
  tolerability of six doses of 60 nmol: tolerated with only minimal weight loss
[4]; HPLC
  decomposition in PBS (in words): No decomposition was observed
[5]
  Kd: 26.5 ± 2.5 nM
  binding affinity for recombinant CAIX in vitro (in words): retain binding affinity for recombinant CAIX in vitro
[6]; mouse serum, HPLC, read-out: t1/2 in mouse serum (converted)
  half-life: 1200 min
SKRC52 xenograft tumors; [10]
  anti-tumor effect: potent anti-tumor effect
  time after start of treatment at which tumors started regrowing: 20 days
  toxicity (body weight): no detectable body weight loss
